Residue numbers refer to the chain shown, from its start.

Data on nine molecules can be found in patent publication US12473560 (FLAGSHIP PIONEERING INNOVATIONS VI, dated 2025).

B1: AB-1 full-length IgG1 (antibody, V domains shown)
VH: EVQLEESGTVLARPGASVKMSCKASGYTFTTYWMHWIKQRPGQGLEWIGAIYPGNSDTQYNQKFKDKAKLTAVKSTSSAYMELSSLTNEDSAVYFCTREGIPQLLRTLDYWGQGTSVTVSS
VL: DILMTQSPSSLSASLGERVSLTCRASQEISGYLSWLQEKPDGTIKRLIYAASTLDSGVPKRFSGSRSGSDYSLTISSLESEDFADYYCLQYLSYPWTFGGGTKLEIK
B2: AB-2 full-length IgG1 (antibody, V domains shown)
VH: B1 VH with S56G, Q59N
VL: B1 VL
B3: AB-5 full-length IgG1 (antibody, V domains shown)
VH: B1 VH with T31S, S56G, Q59N, R106N, Y110V
VL: B1 VL with L89Q
B4: AB-9 full-length IgG1 (antibody, V domains shown)
VH: B1 VH with T31S, Q59N, K74T
VL: B1 VL
B5: AB-8 full-length IgG1 (antibody, V domains shown)
VH: B1 VH with Q59I
VL: B1 VL
B6: AB-4 full-length IgG1 (antibody, V domains shown)
VH: B1 VH with S56G, Q59N, L108F
VL: B1 VL with S30G
B7: AB-7 full-length IgG1 (antibody, V domains shown)
VH: B1 VH with T31S, Q59N, T107S
VL: B1 VL
B8: AB-6 full-length IgG1 (antibody, V domains shown)
VH: B1 VH with T31S, Q59N, L105T
VL: B1 VL
B9: AB-3 full-length IgG1 (antibody, V domains shown)
VH: B1 VH with S56G, Q59N, L104K, Y110V
VL: B1 VL

In this assay the target is soluble G614 HexaPro spike ectodomain (SARS-CoV-2, UniProt P0DTC2 14-1208).
For B1, the Kd (usually a measure of binding affinity in units of concentration) is 0.389 nM. In other words, the sub-nanomolar range.

As for B2, the Kd amounted to 1.69 nM.

With B3, binding was characterised by a dissociation constant (Kd) of 2.09 nM. The Kd values of the last two molecules are within 1.5-fold of each other.

As to B4, binding was characterised by a dissociation constant (Kd) of 1.2 nM.

For B5, the Kd is 1.73 nM.

Consider B6, for which the Kd amounted to 1.14 nM. Compared with the last molecule, the Kd is about 1.5-fold lower.

Consider B7, for which binding was put at a Kd of 2.55 nM.

As for B8, binding was put at a Kd of 0.628 nM.

Regarding B9, binding was put at a Kd of 2.07 nM.
